From the nanobody polyreactivity screen of Harvey et al. (2022)

Assay: yeast display, Sf9 membrane polyspecificity reagent, FACS + sequencing; frameworks hold sequencing errors
How it was run: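 Galactose-induced (36–48 hours) yeast carrying a synthetic nanobody display library were exposed to 10% biotinylated, detergent-solubilized Sf9 membrane reagent at 4 °C for 1 hour. FACS followed streptavidin microbead enrichment, using low and high (top ~1%) gates for expression (anti-HA) and reagent binding (streptavidin). Colony PCR, MiSeq 2 × 250 sequencing and CDR-length filtering followed. Labels for polyreactivity reflect the gate of origin.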

QVQLVESGGGLVQAGGSLRLSCAASGFTFVDYAMGWYRQAPGKERELVAAISSSGDSTYYADSVKGRFTISRYNAKNTVYLQMNSLKPEDNAVYYCAAEYDREEYSGYDYLGQGTQVTVSS
polyreactivity (PSR sort gate): low polyreactivity

QVQLVESGGGLVQAGGSLRLSCAASGFIFKRNAMGWYRQATGNERELVAAITKSGVNTYYADSVKGRFTISRDNAKNTVYLQMTSLKPEDTAVYYCAKTLTYGFRRYDYWGQGTQVTVSS
polyreactivity (PSR sort gate): high polyreactivity

QVQLVESGGGLVQAGGSLRLSCAASGRTFFVNAMGWYRQAPGKERELVAGISIGGRTSYADSVKGRFTISRDNAKNTVYLQMNSLKPEDTAVYYCATSYFPWSRKRYGYWGQGTQVTVSS
polyreactivity (PSR sort gate): high polyreactivity

QVQLVESGGGLVQAGGSLRLSCAASGSTFRYYAMGWYRQAPGKEREFVATINKSGGSTYYADSVKGRFTISRDNEKNTVYLQMNSLKPEDTAVYYGATRKSGGYRYDYWGQGTQVTVSS
polyreactivity (PSR sort gate): high polyreactivity

QVQLVESGGGLVQAGGSLRLSCAASGITFATNAMGWYRQAPGKERDLVAGITSGGSTYYADSVKGRFTISRDNAKNTVYLQMNSLKPEDTAVYYCAKRYHYWYGTGYDYWGQGTQVTVSS
polyreactivity (PSR sort gate): low polyreactivity

QVQLVESGAGIVQAGGSLRLSCAASGSTFGINAMGWYRQAPGKEREFVASISWSTGTTYYADSVKGRFTISRDNAKNTVYLQRNSLKPEDTAVYYCAADSSRFYGRPRYYYWGQGTQVTVSS
polyreactivity (PSR sort gate): high polyreactivity

QVQLVESGGGLVQAGGTLRLRCAPSGSIFWGNAIGWYRQAPGKERELVAAIDWSGGSTYYADSVKGRFTISRDNAKNTVYLLMYSLKPEDTAVYFCAASGRYDYDYWGQGTQVTVSS
polyreactivity (PSR sort gate): low polyreactivity

QVQLVESGGGLVQAGGRLRLNCAASVITFPYNAMGWYRQATGKERELVAAITRSGASTYYADSVKGRFTISRDNSKNTVYVQMNSLKPEDTAVYYCAAKVIGRPRPYYYWGQGTQVTVSS
polyreactivity (PSR sort gate): high polyreactivity

QVQLVESGGGLVQAGGSLRLSCAASGSIFVHYALGWYRQAPGKERELVAAITVTGGTTYYADSVKGRFTISRDNAKNTVYLQMNSLKPEDTAVYYCATRANDGGWTQFGHGYDYWGQGTQVTVSS
polyreactivity (PSR sort gate): low polyreactivity

QVQLVESGGGLVQAGGSLRLSCAASGITFTSNTLGWYRQAPGKERELVAAISKSGGSTYYADSVKGRFTISRDNAKNTVYLQMNSLKPEDTAVYYCAKDSDYYRRDVTVDYWGQGTQVTVSS
polyreactivity (PSR sort gate): low polyreactivity

QVQLVESGGGLVQEGGSLRLSCAASGRPFYNAMGWYRPAPGKERELVAGIRWSGASTYYADSVKGRFTISRDNAKNTVYLQMNSLKPEDTAVYYCAARRHSTRLRLTSDYWGHGTQVTVSS
polyreactivity (PSR sort gate): high polyreactivity

QVQLVESGAGLVQAGASLRLSCDASAFIYVTYAMGWYRQAPGKEMELVAAITNSGGTTYYADSVKGRFTISRDNAKNTVYLQMNSLKPEDTAVYYCNKPYGGETAHREFDYWGQGTQVTVSS
polyreactivity (PSR sort gate): low polyreactivity

EDQLEESGGGLVQAGGSLRLSCAASGLIFPSYVMGWYRQAPGKERELVASISRVGSTYADSVKGRFTISRDNAKNTVYLQMNSLKPEDTAVYYCAKQVVWRGFRGLDYWGQGTQVTLSS
polyreactivity (PSR sort gate): high polyreactivity

QVQLVESGGGLVQAGGSLRLSCAASGSTFIFYAMGWYRQAPGKERELVASITSRAASTYYADSVKGRFTFSRDNAKNTVYFQMNSLKPEVTAVYYCAANFSYTLFWWSSFLLYVYWGQGTQVTVSS
polyreactivity (PSR sort gate): low polyreactivity

QVQLVESGGGLVQAGGSLRLSCAASGSIFGNNAMGWYRQARGKERELVAVITDGGNTYYADSVKGRFTISRDNAKNTVYLQMNSLKPEDTAVYYCNADWWGDSDYWGQGTQVTVSS
polyreactivity (PSR sort gate): low polyreactivity

QVQLEESGGGLVQAGGSLRLSCAASGFTFVPYAMGWYRQAPGKERELVARITWSGGSTYYADSVKGRFTISRDNAKNTVYLQMNSLKPEDTAVYYCNLDTRYPGYWRVFAKNNYWGQGTQVTVSS
polyreactivity (PSR sort gate): high polyreactivity

QVQLVESGGGLVQAGGSLRLSCAASGRIFVKNAMGWYRQAPGKERELVAAISRGGSTYYADSEKGRFTISRDNAKITVYLQMNSLKPEDTAVYNCAPGGQGGDFGDDYWGQGTQVTVSS
polyreactivity (PSR sort gate): high polyreactivity

QVQLVESGGGLVQAGGSLRLSCAASGSTFFRYAMGWYRQAPGKERELVAAISWSGGTTYYADSVKGRFSISRDNAKNTVYLQMNSLKPEDTAVYFCNAVRQGHILDYWGQGTQVTVSS
polyreactivity (PSR sort gate): low polyreactivity

QVQLVESGGGLVQAGGSLRLSCDASGTLSPYAMGWYRQAPGKERELVAVITSNTGRTYADSVKGRFTISRYNSKNTVYLQKNTLNPQDTAFFYCYWGQGTQVTVTS
polyreactivity (PSR sort gate): low polyreactivity

QVQLEESGGGLVQAGGSLRLSCAASGYTFRPYAIGWYRQAAGKERVLVAAISRSGGRTYYADSVKGRFTISRDNAKNTVYLQMNSLIPEDTAVYYCAADRFSLSGFDSWGQGTQGTVSS
polyreactivity (PSR sort gate): low polyreactivity

QVQLVESGGGLVQAGGSLRLSCAASGRIFRYYAMGWYRQAPGKEREFVAAISSNTGTGTYYADSVKGRFTISRDNAKNTVYLQMNSLKPEDTAVYYCNAKYKYRGYYWGQGTQVTVSS
polyreactivity (PSR sort gate): high polyreactivity

QVQLVESGGALVQARGSLRLSSASSGSTFYPNAMGWYIQARGKEREFVAAISFSDGSTYYADSVKGRFTISRDNANNTVYLQMNSPKAEATAVYYCNKGASPDDYDYWGQGTQVTVSS
polyreactivity (PSR sort gate): low polyreactivity

QVQLVESGGGLVQAGGRLRLSCAASGSTFKRYVMRLYRQAPGKERELVAAITWSGTRTYYADSVKGRFTISRDNAKNTVYLQMNSLKPEDTAVYYSAAVADRYPYSGYNYYSWGQGTQVTVSS
polyreactivity (PSR sort gate): high polyreactivity

QVQLVESGGGLVQAGGTLSLSCAASGGTFSTNTMGWYRQATGKERELVAAITEGTGNTYYADSVKGRFTISRDNAKNTVYLQMNSLKPEDTAVYYCATAYAVYHVEYGYWGQGTQVTVSS
polyreactivity (PSR sort gate): low polyreactivity

QVQLVESGGGLVQAGGSLRLSCAASGRSFVLNAMGWYRQAPGKDRELVAAISSGGSTNYADSVKWRFTISRDNAKNTDYLQMNSLKPEDTAVYYCAGQDVNEYSAYYYWGQGTQVTGSS
polyreactivity (PSR sort gate): low polyreactivity

QVQLVESGGGLVQAGGSLRLSCAASGFIFPGNAMGWYRPAPGKERELVAAISNSGSRTYYADSVKGRLTISRDNAKNTVYLQMNSLIPEDTAVYYCNADVHIRGWPYDYWGQGTQVTVSS
polyreactivity (PSR sort gate): low polyreactivity

QVQLVESGGGLVHAGGSLRLSFAASGRTFTLNAMGWYRQAPGKEREFVAAISNSGVRTYYADSVKGRFTISRDNAKNTVYLQMNSLTPEDTAVYYCDGTYQVGDSIDDYWGQGTQVTVSS
polyreactivity (PSR sort gate): low polyreactivity

QVQLVESGGGLVQAGGSLRLSCAASGITLYRYVMGWYRQAPGKERELVADISGRGTSTYYADSVKGRFTISRDNAKNTVYLQMNSLKPEDTAVYYCNAEYTKTGAQREQSFLTRRGPGYDYWGQVTQVTVSS
polyreactivity (PSR sort gate): low polyreactivity

QVQLQESGGGMVQAGGSLLWCAASGTISYNREMGWYRQAPGKERELVAGIGVGTITYYADSVKGRFTIIRDNAKNTVYLQMNSLKPEDTAVYYCAAHIDGIDSHAYCGQGTQVTVSS
polyreactivity (PSR sort gate): low polyreactivity

QVQLVESGGGLVQAGGSLRLSCAASGYTFRYYGMGWYRQAPGKERELVADINSNGVRTYYADSVKGRFTISRDNAKNTVYLQMNSLKPEDTAVYYCNKDWGRYRYDYWGQGTQVNVSS
polyreactivity (PSR sort gate): high polyreactivity

QVQLVESGGGLVQAGGSLRLSCAASGRTFRYYAMGWYRQAPGKERELVAAISASGGSTFYADSVKGRFTISRDNAKNTVYLLMNSLKPEDTAVYYCAAYHYSVFPYKQYDYWGQGTQVTVSS
polyreactivity (PSR sort gate): high polyreactivity

QVQLHESGGGLVQAGGSLRLSCAASGTITYAGPMGWYRQAPGKEREFVAGIGVGSNTNYADSVKGRYTIIRDNAINTVYLEKNSLKPEDTPVYYCAVGGYAPLGRPYWGQVTQVTVSS
polyreactivity (PSR sort gate): low polyreactivity

QVQLVESGGGLVQAGGSLRLSCAASGIIFTRYVMGWYRQAPRKERELVAAISWSGGRTYYADSVKGRFTISRDNAKNTVYLQMNSLKPEDTAVYYCAAGIYQHAGGDYWGQGTQVTVSS
polyreactivity (PSR sort gate): high polyreactivity

QVQLVESGGGLVHAGGSLRLSCAASGSTFGINAMGWYRQAPGKERELVAAITRGGSTKYADSVKGRFTISRDNAKKTVYLQMNSLKPEDTAVYYCNKRPWHRSSRPFYYWGQGTQVTVSS
polyreactivity (PSR sort gate): high polyreactivity

QVQLVESGGCLVQAGGSLRLSCAASGFTFRYYAMGWYRQAPGKEREFVAAIRSSGTTTSYADSVKGRFRISRDYAKNTVYLQMNSLKPEDTAVYFCAAGYFGPQQYYYWCQGTQVTVSS
polyreactivity (PSR sort gate): high polyreactivity

QVQLVETGGGLVQAGGSLRLSCAASGFIFVKYAMGWYRQAPGKERELVAAITTSGTGTFYADSVKGRFTISRDNAKNTVYLQMNSLKPVDTAVYYCNALGHPGDDWGQVTQVTVSS
polyreactivity (PSR sort gate): low polyreactivity

QVQLVESAGGLVQAGGSLRLSCAASGRTFKYYAMGWYRQAPGKERELVAAISRSGGSTYADSVKGRFTISRDNAKNTVYLQMNSLKPDETAVYYCAAYSGVGYLWFDYWGQGTQVTVSS
polyreactivity (PSR sort gate): low polyreactivity

QVQLVESGGGLVQAGGSLRLSCAASGFTFVSYAMGWYRQAPGKERELVASITWTGGSTYYADSVKGRFTISRDNAKNTVYLQMNSLKPEDTAVYYDYWGQGTQVTVSS
polyreactivity (PSR sort gate): low polyreactivity

QVQLVESGGGLVQAGGSLRLSCAASGRIFIYNAMGWSRQAPGKEREFVAAISSSGGSTYYADSVKGRFTISRDNAKNTVYLQMNSLKPEDTAVYYCAAGGWPYSGGWFFQPNYDYWGQGTQVTVSS
polyreactivity (PSR sort gate): low polyreactivity

QVQLVESGGGLVQAGGSLRLSCAASGRTFAYNAMGWYRQAPGKERELVAAISRRGGSTFYADSVKGRFTISRDNAKNTVYLQMNSLKPEDTAVYYCARDSYYIGRWLYYWGQGTQVTVSS
polyreactivity (PSR sort gate): high polyreactivity

QFQLVESGGGLVQAGGSLRLSCAASGVIFEWYTMGWYRQAPGKERELVARISSDGSTTYADSVKGRFTLSRDNAKNTVYFEMNSLKREDTAVYYCAADVSYPGLKYIFDYWGQGTLVTVSS
polyreactivity (PSR sort gate): low polyreactivity

QVQLVESGGGLVQAGGSLRLSCAASGLTFAPYVMGWYRQAPGKERELVPAISRSGGSTYYADSVKGRFTISRDNAKNTVYLQMNSLKPEDTAVYYCNRDVSLSAFDYWGQGTQVTVSS
polyreactivity (PSR sort gate): high polyreactivity

QVQIVESGGGLVQAGGSLRLTCAASGLTFTGNAMGWYIQAPGKERELVAAISWSGGSKYYADSVKGRYTISRDNAKNTVYLQMNSLQPEDTAVYYCADPDARYDYWGQGTQVTVSS
polyreactivity (PSR sort gate): high polyreactivity
